Laboratory results taken from US20260242419A1, “A CYCLIC PEPTIDE FOR TRAPPING INTERLEUKIN-1 BETA” (Merck Sharp & Dohme LLC, priority 2023, published 2026).
Starred links: 1 amine or outer side, 2 acyl side, 3 side chain; linkers in the order of their positions; H or OH if unused. Non-standard residues stand in square brackets, D forms with d. No end group written: not given here. dProc3CH24Pal = (2R,3S)-3-(4-pyridylmethyl)pyrrolidine-2-carboxylic acid, O=C([C@H]1[C@@H](Cc2ccncc2)CCN1[*:1])[*:2]; ThrOBn = (2S,3R)-2-amino-3-benzyloxy-butanoic acid, C[C@@H](OCc1ccccc1)[C@H](N[*:1])C(=O)[*:2]; dPyrimA = (2R)-2-amino-3-pyrimidin-5-yl-propanoic acid, O=C([C@@H](Cc1cncnc1)N[*:1])[*:2]; alTOMe = (2S,3S)-2-amino-3-methoxy-butanoic acid, CO[C@@H](C)[C@H](N[*:1])C(=O)[*:2]; ThrOMe = (2S,3R)-2-amino-3-methoxy-butanoic acid, CO[C@H](C)[C@H](N[*:1])C(=O)[*:2]; dPro(4R-(4-pyridylmethyl)) = O=C(O)[C@H]1C[C@@H](Cc2ccncc2)CN1; Trp(βS-Me,4-F) = C[C@@H](c1c[nH]c2cccc(F)c12)[C@H](N)C(=O)O; Bip(4'-COOH) = N[C@@H](Cc1ccc(-c2ccc(C(=O)O)cc2)cc1)C(=O)O; Trp(4-Cl) = N[C@@H](Cc1c[nH]c2cccc(Cl)c12)C(=O)O; Ala(pyrimidin-5-yl) = N[C@@H](Cc1cncnc1)C(=O)O; Phe(4-COOH) = N[C@@H](Cc1ccc(C(=O)O)cc1)C(=O)O; Trp(4-F) = N[C@@H](Cc1c[nH]c2cccc(F)c12)C(=O)O; Bip = N[C@@H](Cc1ccc(-c2ccccc2)cc1)C(=O)O; Nva(5,5,5-F3) = N[C@@H](CCC(F)(F)F)C(=O)O; Pro(cis-4-F) = O=C(O)[C@@H]1C[C@H](F)CN1; dPhe(4-F) = N[C@H](Cc1ccc(F)cc1)C(=O)O; Dap(CONH2) = NC(=O)NC[C@H](N)C(=O)O; d(αMeD) = C[C@@](N)(CC(=O)O)C(=O)O; 4Pal = N[C@@H](Cc1ccncc1)C(=O)O; d3Pal = N[C@H](Cc1cccnc1)C(=O)O; dCha = N[C@H](CC1CCCCC1)C(=O)O; NMeDab = CN[C@@H](CCN)C(=O)O; dCba = N[C@H](CC1CCC1)C(=O)O; dOrn = NCCC[C@@H](N)C(=O)O; dDab = NCC[C@@H](N)C(=O)O; dDap = NC[C@@H](N)C(=O)O; Dab = NCC[C@H](N)C(=O)O; Nva = CCC[C@H](N)C(=O)O; Aib = CC(C)(N)C(=O)O

target: Recombinant human IL-1β (BioLegend 579404) (human, UniProt P01584 117-269); test: cell-based or functional assay

Row | MRC5 IC50 | Binder
1 | 0.013 nM | cyclo([Bip(4'-COOH)][4Pal][Phe(4-COOH)]G[Pro(cis-4-F)][Trp(βS-Me,4-F)][Aib]SW[d(αMeD)][alTOMe]Q[Dab]G[dPro(4R-(4-pyridylmethyl))]) (ring closure inferred) [SEQ ID NO 254]
2 | 0.016 nM | cyclo([Bip][4Pal][Phe(4-COOH)]G[Pro(cis-4-F)][Trp(βS-Me,4-F)][Aib]SW[d(αMeD)][dE]Q[Dab]G[dPro(4R-(4-pyridylmethyl))]) (ring closure inferred) [SEQ ID NO 249]
3 | 0.013 nM | cyclo([Bip(4'-COOH)][4Pal][Phe(4-COOH)]G[Pro(cis-4-F)][Trp(βS-Me,4-F)][Aib]S[Trp(4-F)][d(αMeD)][Ala(pyrimidin-5-yl)]Q[Dab]G[dPro(4R-(4-pyridylmethyl))]) (ring closure inferred) [SEQ ID NO 252]
4 | 0.013 nM | cyclo([Bip(4'-COOH)][4Pal][Phe(4-COOH)]G[Pro(cis-4-F)][Trp(βS-Me,4-F)][Aib]S[Trp(4-Cl)][d(αMeD)][Ala(pyrimidin-5-yl)]Q[Dab]G[dPro(4R-(4-pyridylmethyl))]) (ring closure inferred) [SEQ ID NO 251]
5 | 0.031 nM | cyclo([Bip][4Pal][Phe(4-COOH)]G[Pro(cis-4-F)][Trp(βS-Me,4-F)][Aib]SW[d(αMeD)][dDap]Q[Dap(CONH2)]G[dPro(4R-(4-pyridylmethyl))]) (ring closure inferred) [SEQ ID NO 246]
6 | 0.027 nM | cyclo([Bip][4Pal][Phe(4-COOH)]G[Pro(cis-4-F)][Trp(βS-Me,4-F)][Aib]SW[Aib][dE]Q[Dab]G[dPro(4R-(4-pyridylmethyl))]) (ring closure inferred) [SEQ ID NO 250]
7 | 0.03 nM | cyclo([Bip][4Pal][Phe(4-COOH)]G[Pro(cis-4-F)][Trp(βS-Me,4-F)][Aib]SW[d(αMeD)][dDab]Q[Dap(CONH2)]G[dPro(4R-(4-pyridylmethyl))]) (ring closure inferred) [SEQ ID NO 247]
8 | 0.013 nM | cyclo([Bip(4'-COOH)][4Pal][Phe(4-COOH)]G[Pro(cis-4-F)][Trp(βS-Me,4-F)][Aib]SW[d(αMeD)][Nva]Q[Dab]G[dPro(4R-(4-pyridylmethyl))]) (ring closure inferred) [SEQ ID NO 253]
9 | 0.019 nM | cyclo([Bip(4'-COOH)][4Pal][Phe(4-COOH)]G[Pro(cis-4-F)][Trp(βS-Me,4-F)][Aib]SW[d(αMeD)][dS]Q[Dab]G[dPro(4R-(4-pyridylmethyl))]) (ring closure inferred) [SEQ ID NO 242]
10 | 0.03 nM | cyclo([Bip][4Pal][Phe(4-COOH)]G[Pro(cis-4-F)][Trp(βS-Me,4-F)][Aib]SW[d(αMeD)][dK]Q[Dap(CONH2)]G[dPro(4R-(4-pyridylmethyl))]) (ring closure inferred) [SEQ ID NO 244]
11 | 0.027 nM | cyclo([Bip][4Pal][Phe(4-COOH)]G[Pro(cis-4-F)][Trp(βS-Me,4-F)][Aib]SW[d(αMeD)][dOrn]Q[Dap(CONH2)]G[dPro(4R-(4-pyridylmethyl))]) (ring closure inferred) [SEQ ID NO 245]
12 | 0.022 nM | cyclo([Bip(4'-COOH)][4Pal][Phe(4-COOH)]G[Pro(cis-4-F)][Trp(βS-Me,4-F)][Aib]SW[d(αMeD)][dF]Q[Dab]G[dPro(4R-(4-pyridylmethyl))]) (ring closure inferred) [SEQ ID NO 243]
13 | 0.028 nM | cyclo([Bip][4Pal][Phe(4-COOH)]G[Pro(cis-4-F)][Trp(βS-Me,4-F)][Aib]SW[d(αMeD)][dDab]Q[Dab]G[dPro(4R-(4-pyridylmethyl))]) (ring closure inferred) [SEQ ID NO 248]

target: Recombinant human IL-1β (BioLegend 579404) (human, UniProt P01584 117-269); test: cell-based or functional assay; remark: another data set of the same source

Row | MRC5 IC50 | Binder
14 | 0.022 nM | [Bip(4'-COOH)][4Pal][Phe(4-COOH)]G[Pro(cis-4-F)][Trp(βS-Me,4-F)][Aib]SW[d(αMeD)][Nva(5,5,5-F3)]Q[Dab]G[dProc3CH24Pal] (lactam (positions not given here); also: macrolactam, ring places not given here) [SEQ ID NO: 232]
15 | 0.025 nM | cyclo([Bip(4'-COOH)][4Pal][Phe(4-COOH)]G[Pro(cis-4-F)][Trp(βS-Me,4-F)][Aib]SW[d(αMeD)][d3Pal]Q[Dab]G[dProc3CH24Pal]) (ring closure inferred) [SEQ ID NO: 240]
16 | 0.018 nM | cyclo([Bip(4'-COOH)][4Pal][Phe(4-COOH)]G[Pro(cis-4-F)][Trp(βS-Me,4-F)][Aib]SW[Aib][Ala(pyrimidin-5-yl)]Q[NMeDab]G[dProc3CH24Pal]) (ring closure inferred) [SEQ ID NO: 241]
17 | 0.022 nM | [Bip(4'-COOH)][4Pal][Phe(4-COOH)]G[Pro(cis-4-F)][Trp(βS-Me,4-F)][Aib]SW[d(αMeD)][Ala(pyrimidin-5-yl)]Q[Dap(CONH2)]G[dProc3CH24Pal] (lactam (positions not given here); also: macrolactam, ring places not given here) [SEQ ID NO: 230]
18 | 0.021 nM | [Bip(4'-COOH)][4Pal][Phe(4-COOH)]G[Pro(cis-4-F)][Trp(βS-Me,4-F)][Aib]SW[d(αMeD)][dPhe(4-F)]Q[Dab]G[dProc3CH24Pal] (lactam (positions not given here); also: macrolactam, ring places not given here) [SEQ ID NO: 236]
19 | 0.03 nM | [Bip(4'-COOH)][4Pal][Phe(4-COOH)]G[Pro(cis-4-F)][Trp(βS-Me,4-F)][Aib]SW[Aib][dPyrimA]Q[Dab]G[dProc3CH24Pal] (lactam (positions not given here); also: macrolactam, ring places not given here) [SEQ ID NO: 233]
20 | 0.025 nM | [Bip(4'-COOH)][4Pal][Phe(4-COOH)]G[Pro(cis-4-F)][Trp(βS-Me,4-F)][Aib]SW[d(αMeD)][dCha]Q[Dab]G[dProc3CH24Pal] (lactam (positions not given here); also: macrolactam, ring places not given here) [SEQ ID NO: 237]
21 | 0.024 nM | [Bip(4'-COOH)][4Pal][Phe(4-COOH)]G[Pro(cis-4-F)][Trp(βS-Me,4-F)][Aib]SW[Aib][dD]Q[Dab]G[dProc3CH24Pal] (lactam (positions not given here); also: macrolactam, ring places not given here) [SEQ ID NO: 234]
22 | 0.018 nM | [Bip(4'-COOH)][4Pal][Phe(4-COOH)]G[Pro(cis-4-F)][Trp(βS-Me,4-F)][Aib]SW[d(αMeD)][Ala(pyrimidin-5-yl)]Q[NMeDab]G[dProc3CH24Pal] (lactam (positions not given here); also: macrolactam, ring places not given here) [SEQ ID NO: 235]
23 | 0.027 nM | [Bip(4'-COOH)][4Pal][Phe(4-COOH)]G[Pro(cis-4-F)][Trp(βS-Me,4-F)][Aib]SW[d(αMeD)][Nva]Q[Dab]G[dProc3CH24Pal] (lactam (positions not given here); also: macrolactam, ring places not given here) [SEQ ID NO: 231]
24 | 0.024 nM | [Bip(4'-COOH)][4Pal][Phe(4-COOH)]G[Pro(cis-4-F)][Trp(βS-Me,4-F)][Aib]SW[d(αMeD)][dL]Q[Dab]G[dProc3CH24Pal] (lactam (positions not given here); also: macrolactam, ring places not given here) [SEQ ID NO: 238]
25 | 0.023 nM | [Bip(4'-COOH)][4Pal][Phe(4-COOH)]G[Pro(cis-4-F)][Trp(βS-Me,4-F)][Aib]SW[d(αMeD)][ThrOBn]Q[Dab]G[dProc3CH24Pal] (lactam (positions not given here); also: macrolactam, ring places not given here) [SEQ ID NO: 229]
26 | 0.02 nM | [Bip(4'-COOH)][4Pal][Phe(4-COOH)]G[Pro(cis-4-F)][Trp(βS-Me,4-F)][Aib]SW[d(αMeD)][dCba]Q[Dab]G[dProc3CH24Pal] (lactam (positions not given here); also: macrolactam, ring places not given here) [SEQ ID NO: 239]
27 | 0.021 nM | [Bip(4'-COOH)][4Pal][Phe(4-COOH)]G[Pro(cis-4-F)][Trp(βS-Me,4-F)][Aib]SW[d(αMeD)][ThrOMe]Q[Dap(CONH2)]G[dProc3CH24Pal] (lactam (positions not given here); also: macrolactam, ring places not given here) [SEQ ID NO: 228]
